Data on 1 substance can be found in article doi:10.1101/2020.10.23.350348.

In the experiment the target is transferrin receptor (UniProt P02786). The experiment is described as follows: SPR. (In SPR one partner is held on a chip, and binding of the other changes the refractive index at the surface.)

Broadly, the Kd is the concentration at which binding is half-saturated. Read a low Kd as a tighter complex.

transferrin receptor, sequence (P02786 whole entry): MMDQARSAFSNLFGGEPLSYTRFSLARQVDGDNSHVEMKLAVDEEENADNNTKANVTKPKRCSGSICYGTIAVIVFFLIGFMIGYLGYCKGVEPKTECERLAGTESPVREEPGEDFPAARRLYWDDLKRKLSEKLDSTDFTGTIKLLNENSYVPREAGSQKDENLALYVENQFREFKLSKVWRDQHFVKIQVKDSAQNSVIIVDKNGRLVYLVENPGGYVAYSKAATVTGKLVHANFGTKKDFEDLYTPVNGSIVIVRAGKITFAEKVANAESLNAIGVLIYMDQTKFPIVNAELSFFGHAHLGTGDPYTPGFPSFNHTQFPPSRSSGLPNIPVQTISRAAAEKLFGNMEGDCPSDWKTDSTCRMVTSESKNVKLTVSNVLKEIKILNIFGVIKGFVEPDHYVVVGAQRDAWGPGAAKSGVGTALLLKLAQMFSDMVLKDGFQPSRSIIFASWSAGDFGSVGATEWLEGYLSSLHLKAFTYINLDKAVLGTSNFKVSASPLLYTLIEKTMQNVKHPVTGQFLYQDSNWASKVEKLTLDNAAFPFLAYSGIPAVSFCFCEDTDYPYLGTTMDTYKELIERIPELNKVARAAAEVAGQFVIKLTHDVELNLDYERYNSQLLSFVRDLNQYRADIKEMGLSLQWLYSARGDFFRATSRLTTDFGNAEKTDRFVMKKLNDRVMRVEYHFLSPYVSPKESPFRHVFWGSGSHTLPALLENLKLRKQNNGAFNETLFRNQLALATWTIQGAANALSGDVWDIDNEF

“SARS-CoV-2 spike protein (from UniProt P0DTC2 14-1273) (natural protein)” returned a Kd of 2.95 nM.
